Reference: paper PMC7442695 (Nature, 2020)

B1: C101 monoclonal antibody (IgG) (antibody, V domains shown)
VH: QVQLVESGGGLIQPGGSLRLSCAASGFIVSSNYMSWVRQAPGKGLEWVSVIYSGGSTFYTDSVKGRFTISRDNSKNTLYLQMNSLRAEDTAVYYCVRDYGDFYFDYWGQGTLVTVSS
VL: EIVLTQSPGTLSLSPGERATLSCRASQSVSSSYLAWYQQKPGQAPRLLIYGASSRATGIPDRFSGGGSETDFTLTISRLEPEDCAVYYCQQYGSSPRTFGQGTKVEIK
B2: C119 monoclonal antibody (IgG) (antibody, V domains shown)
VH: QVQLVQSGAEVKKPGASVKVSCKASGYTFTSYYMHWVRQAPGQGLEWMGIINPSGGSTSYAQKLQGRVTMTRDTSTSTVYMELSSLRSEDTAVYYCARANHETTMDTYYYYYYMDVWGKGTTVTVSS
VL: QSALTQPASVSGSPGQSITISCTGTSSDVGGYKYVSWYQRHPGKAPKLMIYDVSNRPSGVSNRFSGSKSGNTASLTISGLQAEDEADYYCSSYTSSSTSVVFGGGTQLTVL
B3: C121 monoclonal antibody (IgG) (antibody, V domains shown)
VH: not shown
VL: QSALTQPASVSGSPGQSITISCTGTSSDVGSYNLVSWYQQHPGKAPKLMIYEGSKRPSGVSNRFSGSKSGNTASLTISGLQAEDEADYYCCSYAGSSTLVFGGGTKLTVL
B4: C002 monoclonal antibody (IgG) (antibody, V domains shown)
VH: EVQLVESGGGVVQPGRSLRLSCAASGFTFSIYGMHWVRQAPGKGLEWVAVISYDGSNKYYADSVKGRFTISRDNSKNTLYLQMNSLRAEDTAVYYCAKEGRPSDIVVVVAFDYWGQGTLVTVSS
VL: not shown
B5: C009 monoclonal antibody (IgG) (antibody, V domains shown)
VH: not shown
VL: QSALTQPPSASGSPGQSVTISCTGTSSDVGGYNYVSWYQQHPGKAPKLMIYEVSKRPSGVPDRFSGSKSGNTASLTVSGLQAEDEAEYYCSSDAGSNNVVFGGGTKLTVL

Biological target: SARS-CoV-2 receptor binding domain (RBD; residues 331–524) (SARS-CoV-2, early isolate (GenBank …, UniProt P0DTC2)
Test: BLI

Binder | binding result
B1 | binds
B2 | binds
B3 | binds
B4 | binds
B5 | binds
